Source: US7405286B2, “Stars—A muscle-specific actin-binding protein” (The Board of Regents of the University of Texas System, priority 2002, dated 2008)
“Also recorded” adds a separate entry of the source.

B1: Del263-279: small internal STARS deletion mutant within the conserved region (protein)
chain: MAPGEKESGEGPAKSALRKIRTATLVISLARGWQQWANENSIRQAQEPTGWLPGGTQDSPQAPKPITPPTSHQKAQSAPKSPPRLPEGHGDGQSSEKAPEVSHIKKKEVSKTVVSKTYERGGDVSHLSHRYERDAGVLEPGQPENDIDRILHSHGSPTRRRKCANLVSELTKGWRVMEQEEPTWRSDSVDTEDSGYGGEAEERPEQDGVQVAVVRIKRPLPSQVNRFTEKLNCKAQQKYSPVGNLKGRWQQWADEHIQSQKLHKGDEGYGRPKEGTKTAERAKRAEEHIYREMMDMCFIICTMARHRRDGKIQVTFGDLFDRYVRISDKVVGILMRARKHGLVDFEGEMLWQGRDDHV
modifications: left off: small tags and cut ends
notes: small internal STARS deletion mutant within the conserved region
B2: Del248-262: small internal STARS deletion mutant within the conserved region (protein)
chain: MAPGEKESGEGPAKSALRKIRTATLVISLARGWQQWANENSIRQAQEPTGWLPGGTQDSPQAPKPITPPTSHQKAQSAPKSPPRLPEGHGDGQSSEKAPEVSHIKKKEVSKTVVSKTYERGGDVSHLSHRYERDAGVLEPGQPENDIDRILHSHGSPTRRRKCANLVSELTKGWRVMEQEEPTWRSDSVDTEDSGYGGEAEERPEQDGVQVAVVRIKRPLPSQVNRFTEKLNCKAQQKYSPVGNLKGNPFSEEFDYELAMSTRLHKGDEGYGRPKEGTKTAERAKRAEEHIYREMMDMCFIICTMARHRRDGKIQVTFGDLFDRYVRISDKVVGILMRARKHGLVDFEGEMLWQGRDDHV
modifications: left off: small tags and cut ends
notes: as for B1
B3: STARS: novel 375-amino acid muscle-specific actin-binding protein, expressed from a Myc-tagged expression vector (protein, UniProt Q8BUZ1 1-375, looked up)
Actin-binding Rho-activating …: MAPGEREREAGPAKSALRKVRTATLVINLARGWQQWANENSTKQAQEPAGWLPGATHDLPNAPKEAGPYQHAPKTLSPKPDRDGEGQHSEEATEVSHIKRKEVTRTVVSKAYERGGDVNYLSHRYENDGGVSEAIQPENDIDRILLSHDSPTRRRKCTNLVSELTKGWKVMEQEEPTWKSDSVDTEDSGYGGDMEERPEQDAAPVAPARIKRPLLSQANRYSETLNCKAHRKYSQVDNLKGRWQQWADEHVQSQKLNPFSDEFDYDLAMSTRLHKGDEGYGRPKEGSKTAERAKRAEEHIYREIMELCFVIRTMARHRRDGKIQVTFGELFDRYVRISDKVVGILMRARKHGLVHFEGEMLWQGRDDHVVITLLE
modifications: Myc tag

What was measured:
SM22 promoter [1] = test: SM22-luciferase reporter assay in transiently transfected COS cells; type: cell-based; details: for activation of SM22-luciferase / SRF transcription, in words: STARS and deletion mutants
Source text: (§1) STARS Expression Plasmids. STARS expression constructs were generated using the pcDNA3.1 mammalian expression vector (Invitrogen) which was modified to contain an amino-terminal Myc-tag. Constitutively active RhoA (L63) and C3 transferase in Prk5 were generously provided by Dr. Alan Hall (University College, London, United Kingdom). The SM22-luciferase reporter 1343 bp promoter has been previously described (Li et al., 1995). The smooth muscle α actin-luciferase reporter contained the 4 kb promoter region ligated into the pBL3basic vector (Promega). The ANF reporter contained the 638 bp promoter region (a generous gift from Dr. Mona Nemer, Universite de Montreal, Montreal, Quebec, Canada). The 4× cfos reporter contained four tandem copies of the cfos CArG box with flanking sequences, as described (Chang et al., 2001). CMV-lacZ (Promega) was used as an internal control for transfection efficiency.
(§2) Transient Transfections, Reporter Assays and Immunofluorescence Microscopy. COS cells were maintained in DMEM with 10% FBS. Eighteen hours after plating, the medium was changed to serum-free medium and transfections were performed at 50% confluency using FuGENE reagent-6 (Roche Molecular Biochemicals) following manufacturer's instructions. Each transfection used 0.15 μg of plasmid DNA for the reporter assays, and 0.5-1.0 μg immunohistochemistry. Cytochalasin D 2 μM (Sigma-Aldrich), and Y-27632 75 μM (Tocris) were added directly just after transfection. Latrunculin B 0.5 μM (dissolved in 10% ethanol, Calbiochem) was added 12 hr after transfection and 10% ethanol (final concentration 0.01%) was added to control wells. Cells were harvested 36 hr after transfection and their luciferase and β-galactosidase activity were measured.

F-actin = test: Immunofluorescence / Phalloidin-TRITC staining of transfected COS cells; type: cell-based; details: transfected COS cells, Myc-tagged proteins
Protocol: as §2
For measuring immunofluorescence, cells were rinsed with PBS and fixed in 4% paraformaldehyde for 10 min on ice. After rinsing with PBS, COS cells were incubated in 0.1% Triton X-100 in PBS for 5 min on ice. For rat neonatal cardiomyocytes, 1% Triton X-100 in PBS was used. Cells were blocked for 20 min at room temperature in 0.5% BSA in PBS for COS cells and in 1% BSA plus 3% goat serum in PBS for rat cardiomyocytes. Then, cells were incubated with first antibody diluted in 0.5% BSA in PBS for 30-60 min at room temperature or overnight at 4° C. Anti c-myc monoclonal antibody 9E10 (Santa Cruz) was used at a 1:200 dilution. Other antibodies were anti α-actinin monoclonal antibody (1:400; Sigma-Aldrich), α-tubulin antibody (1:2000; Sigma-Aldrich) and anti-vimentin antibody (1:500; Sigma-Aldrich). Secondary antibodies were anti mouse/rabbit IgG FITC or Texas red (Vector) used at a 1:200 dilution incubated with or without Phalloidin-TRITC (1:500; Sigma Aldrich).

actin = test: Co-immunoprecipitation of Myc-tagged proteins with actin in COS cells; type: binding; details: anti-Myc immunoprecipitation, anti-actin Western blot
Protocol: Western Blot and Co-immunoprecipitation Assay. Immunoprecipitation and western blot analysis was performed as described previously (Lu et al., 2000). For immunoprecipitation, cells were incubated with 1 μg anti c-myc polyclonal antibody A14 (Santa Cruz). Western blots were performed with anti-actin monoclonal antibody C4 (1:100; Roche Molecular Biochemicals) or anti c-myc monoclonal antibody 9E10 (1:1000; Santa Cruse) followed by incubation with secondary antibody HRP-conjugated anti mouse-IgG (Santa Cruse, Vector). To detect signals, blots were incubated with ECL (Santa Cruz) for 1 min, and exposed to film (Eastman Kodak Co).

[2] = test system: α-smooth muscle actin promoter; test: smooth muscle α actin-luciferase reporter assay in COS cells; type: cell-based
Source text: as §1
(§3) Transient Transfections, Reporter Assays and Immunofluorescence Microscopy. COS cells were maintained in DMEM with 10% FBS. Eighteen hours after plating, the medium was changed to serum-free medium and transfections were performed at 50% confluency using FuGENE reagent-6 (Roche Molecular Biochemicals) following manufacturer's instructions. […] Cells were harvested 36 hr after transfection and their luciferase and β-galactosidase activity were measured.

cytomegalovirus promoter = cytomegalovirus promoter reporter assay; type: cell-based; details: data not shown
Source text: as §1, §3

SM22 promoter [3] = test: SM22-luciferase reporter assay in F9 cells; type: cell-based; details: low endogenous SRF expression
[4] = test system: atrial natriuretic factor (ANF) promoter; test: ANF reporter assay in COS cells; type: cell-based
Source text: as §1, §3

[5] = test system: E1b promoter linked to four tandem copies of the CArG box from the c-fos promoter; test: 4× cfos CArG box reporter assay in COS cells; type: cell-based
Source text: as §1, §3

Row | Molecule | activation of SM22-luciferase / SRF transcription, in words (SM22 promoter [1]; COS cells) | bundling of actin stress fibers (F-actin) | co-immunoprecipitation with actin (actin) | activation of the SM22 promoter (SM22 promoter [1]; COS cells, STARS or RhoA (L63) expression vector alone) | increase of SM22 promoter activity by STARS (SM22 promoter [1]; COS cells, in the presence of CD (2 μM)) | responsiveness of SM22 promoter with mutated CArG boxes (SM22 promoter [1]; COS cells, mutSM22 reporter) | stimulation of expression of SM22 luciferase reporter (SM22 promoter [1]; transiently transfected COS cells, STARS expression vector) | stimulation of α-smooth muscle actin promoter [2] | association with F-actin / actin stress fibers (F-actin) | association with F-actin / actin stress fibers (F-actin; listed as STARS (wt)) | bundling of actin stress fibers (F-actin; listed as STARS (wt)) | bundling of actin stress fibers (F-actin; listed as Wild type STARS) | activation of cytomegalovirus promoter (cytomegalovirus promoter) | effect on the SM22 promoter (SM22 promoter [3]) | stimulation of ANF promoter [4] | activation of E1b promoter with four c-fos CArG boxes [5]
1 | B1 | activate SRF transcription | induce actin bundles | weak actin-binding activity |  |  |  |  |  |  |  |  |  |  |  |  | 
2 | B2 | activate SRF transcription | induce actin bundles | weak actin-binding activity |  |  |  |  |  |  |  |  |  |  |  |  | 
3 | B3 | activate SRF transcription | induced stress fiber formation and bundling | co-immunoprecipitated with actin | comparable levels | 18 fold | abolished responsiveness | 40 fold | weakly stimulated | strongly colocalized with F-actin | strongly associates with F-actin | induces extremely thick bundles | induce actin bundles | did not activate | minimal effect | did not stimulate; also recorded: could not activate | activated
